B1: LYSMD4 (parent)
chain: LLQRELAQEDSLNKLALQYGCKVA
B2: MLL5 (parent)
chain: TYLCERCQPRNLDKERAVLLQRRK

Variants of: B1
Test: protein stability index of a GFP-peptide fusion (GPS, HEK-293T) (PSI 1-6); higher = more stable
Details: c terminus: a fixed tail appended
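Also: lentivirally expressed fusions sorted by FACS into six bins by GFP to DsRed ratio, PSI derived from sequencing read proportions per bin multiplied by bin number.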

Variant | protein stability index
LLQRELAQEDSLNKLALQYGCKVY [A24Y] | 2.75
LLQRELAQEDSLNKLALQYGCKVG [A24G] | 2.1
LLQRELAQEDSLNKLALQYGCKVR [A24R] | 1.95
LLHRELAQEDSLNKLALQYGCKVA [Q3H] | 2.24
LLQTELAQEDSLNKLALQYGCKVA [R4T] | 1.9
LLQRETAQEDSLNKLALQYGCKVA [L6T] | 1.92
LLQREEAQEDSLNKLALQYGCKVA [L6E] | 3
LLQRELAQEDSLGKLALQYGCKVA [N13G] | 1.23
LLQRELAQEDSYNKLALQYGCKVA [L12Y] | 2.38
LLQRELAQEDSINKLALQYGCKVA [L12I] | 2.06
LLQRELAQEDSGNKLALQYGCKVA [L12G] | 3.39
LLQRELAQEDSLNKLALQYGCKIA [V23I] | 1.89
LLQRELAQEDSLNKLALQTGCKVA [Y19T] | 3.17
LLQRELAMEDSLNKLALQYGCKVA [Q8M] | 1.92
LLQRELAAEDSLNKLALQYGCKVA [Q8A] | 1.73
LLQRELAKEDSLNKLALQYGCKVA [Q8K] | 1.66
ILQRELAQEDSLNKLALQYGCKVA [L1I] | 2.28
QLQRELAQEDSLNKLALQYGCKVA [L1Q] | 1.32

Variant | protein stability index
NLQRELAQEDSLNKLALQYGCKVA [L1N] | 2.09
LLQRELAQEDSLNKLALQYGQKVA [C21Q] | 2.98
LLQRELAQEDSLNKLALQYGCYVA [K22Y] | 1.35
LLQRELAQYDSLNKLALQYGCKVA [E9Y] | 1.9
LLQRELAQEDSLNKLNLQYGCKVA [A16N] | 1.98
LLQRELAQEDSLNKLHLQYGCKVA [A16H] | 3.4
LLQRELAQEDSLNKLTLQYGCKVA [A16T] | 1.78
LLQRELAQEDSLNKLALQYYCKVA [G20Y] | 1.74
LLQRELTQEDSLNKLALQYGCKVA [A7T] | 1.87
LLQRELRQEDSLNKLALQYGCKVA [A7R] | 1.49
LLQRELAQEDSLNKWALQYGCKVA [L15W] | 1.2
LLQRELAQEDSLNKSALQYGCKVA [L15S] | 2.88
LIQRELAQEDSLNKLALQYGCKVA [L2I] | 2.18
LEQRELAQEDSLNKLALQYGCKVA [L2E] | 2.92
LAQRELAQEDSLNKLALQYGCKVA [L2A] | 2.26
LLQRELAQEDKLNKLALQYGCKVA [S11K] | 2.01
LLQRYLAQEDSLNKLALQYGCKVA [E5Y] | 2.21

Variants of: B2
Test: as above
Details: c terminus: a fixed tail appended

Variant | protein stability index
TYLCERCQMRNLDKERAVLLQRRK [P9M] | 2.08
TYLCERCQFRNLDKERAVLLQRRK [P9F] | 2.15
TYLCERCQNRNLDKERAVLLQRRK [P9N] | 3.62
TYLCERCQIRNLDKERAVLLQRRK [P9I] | 1.91
TYLCERCQARNLDKERAVLLQRRK [P9A] | 1.86
TYLCERCQRRNLDKERAVLLQRRK [P9R] | 2.35
TYLCERCQQRNLDKERAVLLQRRK [P9Q] | 3.16
TYLCERCQGRNLDKERAVLLQRRK [P9G] | 2.68
TYLCERCQTRNLDKERAVLLQRRK [P9T] | 2.81
TYLCERCQCRNLDKERAVLLQRRK [P9C] | 2.76
TYLCERCQLRNLDKERAVLLQRRK [P9L] | 2.69
TYLCERCQSRNLDKERAVLLQRRK [P9S] | 2.27
TYLCERCQHRNLDKERAVLLQRRK [P9H] | 1.97
TYLCERCQDRNLDKERAVLLQRRK [P9D] | 2.32
TYLCERCQERNLDKERAVLLQRRK [P9E] | 3.09
TYLCERCPPRNLDKERAVLLQRRK [Q8P] | 3.38
TYLCERCRPRNLDKERAVLLQRRK [Q8R] | 2.44
TYLCERCDPRNLDKERAVLLQRRK [Q8D] | 2.8
TYLCERCTPRNLDKERAVLLQRRK [Q8T] | 2.72
TYLCERCCPRNLDKERAVLLQRRK [Q8C] | 1.38

Variant | protein stability index
TYLCERCEPRNLDKERAVLLQRRK [Q8E] | 2.42
TYLCERCIPRNLDKERAVLLQRRK [Q8I] | 1.79
TYLCERCFPRNLDKERAVLLQRRK [Q8F] | 2.29
TYLCERCWPRNLDKERAVLLQRRK [Q8W] | 4.94
TYLCERCKPRNLDKERAVLLQRRK [Q8K] | 2.05
TYLCERCVPRNLDKERAVLLQRRK [Q8V] | 1.9
TYLCERCNPRNLDKERAVLLQRRK [Q8N] | 1.55
TYLCERCGPRNLDKERAVLLQRRK [Q8G] | 2.36
TYLCERCMPRNLDKERAVLLQRRK [Q8M] | 1.67
TYLCERCLPRNLDKERAVLLQRRK [Q8L] | 1.93
TYLCERCAPRNLDKERAVLLQRRK [Q8A] | 2.74
TYLCERCSPRNLDKERAVLLQRRK [Q8S] | 1.14
TYLCERCYPRNLDKERAVLLQRRK [Q8Y] | 1.5
TYLCERTQPRNLDKERAVLLQRRK [C7T] | 4.37
TYLCERLQPRNLDKERAVLLQRRK [C7L] | 3.12
TYLCERNQPRNLDKERAVLLQRRK [C7N] | 3.93
TYLCERDQPRNLDKERAVLLQRRK [C7D] | 4.49
TYLCEREQPRNLDKERAVLLQRRK [C7E] | 4.89
TYLCERKQPRNLDKERAVLLQRRK [C7K] | 3.34
TYLCERQQPRNLDKERAVLLQRRK [C7Q] | 3.65

Variant | protein stability index
TYLCERAQPRNLDKERAVLLQRRK [C7A] | 4.59
TYLCERIQPRNLDKERAVLLQRRK [C7I] | 3.76
TYLCERGQPRNLDKERAVLLQRRK [C7G] | 3.59
TYLCERHQPRNLDKERAVLLQRRK [C7H] | 3.12
TYLCERFQPRNLDKERAVLLQRRK [C7F] | 3.27
TYLCERRQPRNLDKERAVLLQRRK [C7R] | 4.03
TYLCERPQPRNLDKERAVLLQRRK [C7P] | 3.94
TYLCERMQPRNLDKERAVLLQRRK [C7M] | 3.2
TYLCERSQPRNLDKERAVLLQRRK [C7S] | 4.63
TYLCERWQPRNLDKERAVLLQRRK [C7W] | 3.6
TYLCERVQPRNLDKERAVLLQRRK [C7V] | 3.32
TMLCERCQPRNLDKERAVLLQRRK [Y2M] | 2.53
TCLCERCQPRNLDKERAVLLQRRK [Y2C] | 1.76
TTLCERCQPRNLDKERAVLLQRRK [Y2T] | 2.41
TQLCERCQPRNLDKERAVLLQRRK [Y2Q] | 3.53
TVLCERCQPRNLDKERAVLLQRRK [Y2V] | 2.16
TKLCERCQPRNLDKERAVLLQRRK [Y2K] | 3.44
TLLCERCQPRNLDKERAVLLQRRK [Y2L] | 2.78
TPLCERCQPRNLDKERAVLLQRRK [Y2P] | 3.19

Reference: the supplement of paper PMC10567573
